T1: human fXIIa (Homo sapiens, UniProt P00748)
T1 construct: Human coagulation factors IIa (thrombin), Xa, XIa, XIIa, EGR-fXa; purchased Haematologic Technologies Inc (United States)
T1 sequence (P00748 373-615 limits assumed): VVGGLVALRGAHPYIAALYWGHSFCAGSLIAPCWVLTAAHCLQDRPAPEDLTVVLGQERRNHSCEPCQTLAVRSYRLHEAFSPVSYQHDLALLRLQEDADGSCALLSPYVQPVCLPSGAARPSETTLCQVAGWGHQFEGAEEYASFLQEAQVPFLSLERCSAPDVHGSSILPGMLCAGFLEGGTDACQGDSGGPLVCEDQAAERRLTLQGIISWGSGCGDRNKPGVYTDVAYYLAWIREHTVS
T1 sequence (P00748 20-372 limits assumed): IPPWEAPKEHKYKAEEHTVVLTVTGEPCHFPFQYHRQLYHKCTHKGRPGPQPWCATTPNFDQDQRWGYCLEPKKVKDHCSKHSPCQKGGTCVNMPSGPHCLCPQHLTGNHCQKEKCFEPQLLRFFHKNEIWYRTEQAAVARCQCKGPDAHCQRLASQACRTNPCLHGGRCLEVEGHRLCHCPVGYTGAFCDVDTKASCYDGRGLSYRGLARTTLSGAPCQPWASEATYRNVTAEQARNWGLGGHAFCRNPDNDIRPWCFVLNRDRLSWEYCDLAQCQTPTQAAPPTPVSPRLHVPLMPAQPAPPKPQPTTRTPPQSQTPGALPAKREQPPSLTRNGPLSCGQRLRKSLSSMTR

B1: NAPTin-3 (protein)
chain: NPSCGENERHDECSRKECDPKCKYDGTEEKDDEKPVVCLTRVCYGDCICRDGFLRNKNGACVKAEDCELDNM
modifications: Sequence derived from Ancylostoma caninum or Synthetic
B2: NAPTin-8 (protein)
chain: NPSCGENERHDECSRKECDPKCKYDGTEEKDDEKPVVCLTRVCYGDCICRDGFLRNKNGACVKAEDCELDNMEF
modifications: Sequence derived from Ancylostoma caninum or Synthetic
B3: NAPTin-9 (protein)
chain: NPSCGENERHDECSRKECDPKCKYDGTEEKDDEKPVVCLTRVCYGDCICRDGFLRNKNGACVKAEDCELDNMEFI
modifications: Sequence derived from Ancylostoma caninum or Synthetic

Legend:
normal human plasma [1] = assay: aPTT assay in normal human plasma; assay type: biochemical; details: for prolongation of aPTT (in words): 100 nM and 500 nM; for aPTT: normal human plasma; for multiples of prolonging aPTT: ratio of mean aPTT to blank control
Method: (§1) The recombinant anticoagulant polypeptides were expressed in Escherichia coli and purified in our laboratory. Anticoagulant activity was determined by measuring the aPTT and PT.
For the aPTT assay, 10 μl recombinant protein at various concentrations was mixed with 50 μl fresh normal human plasma, 20 μl aPTT reagent (MDC Hemostasis, Germany) and incubated for 15 mins at 37° C. 20 μl 0.05 mol/L prewarmed CaCl2 was then added to initiate the clotting reaction. The clotting time was measured with the absorbance at 630 nm by using an E1x808 kinetic microtiter reader (BioTek, United States). Each concentration was repeated 3 times. The ratio of the mean aPTT value of each concentration to blank control group is multiples of prolonging the aPTT.

normal human plasma [2] = assay: PT assay in normal human plasma; assay type: biochemical; details: for PT: normal human plasma
Method: as §1
For the PT assay, 10 μl recombinant protein at various concentration was mixed with 45 μl normal human plasma and incubated for 15 mins at 37° C. 45 μl prewarmed PT reagent (MDC Hemostasis, Germany) was then added and the clotting time was measured with the absorbance at 630 nm by using an E1x808 kinetic microtiter reader (BioTek, United States). Each concentration was repeated 3 times.

human fXIa = biological target: T2, human fXIa (Homo sapiens, UniProt P03951); assay: Chromogenic assay, fXIa; assay type: biochemical; details: for inhibition of the activity of fXIa: 100 nM
T2 construct: Human coagulation factors IIa (thrombin), Xa, XIa, XIIa, EGR-fXa; purchased Haematologic Technologies Inc (United States)
T2 sequence (P03951 19-387 limits assumed): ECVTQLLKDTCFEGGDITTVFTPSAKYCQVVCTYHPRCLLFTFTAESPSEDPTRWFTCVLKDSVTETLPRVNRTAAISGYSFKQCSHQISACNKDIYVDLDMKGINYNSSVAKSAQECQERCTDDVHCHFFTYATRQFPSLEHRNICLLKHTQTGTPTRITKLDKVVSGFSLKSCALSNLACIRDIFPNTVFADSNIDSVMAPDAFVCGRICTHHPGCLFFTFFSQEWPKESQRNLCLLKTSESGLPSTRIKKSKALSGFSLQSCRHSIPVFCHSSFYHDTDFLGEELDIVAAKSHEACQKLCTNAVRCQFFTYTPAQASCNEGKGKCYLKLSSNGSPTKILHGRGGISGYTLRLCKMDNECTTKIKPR
T2 sequence (P03951 388-625 limits assumed): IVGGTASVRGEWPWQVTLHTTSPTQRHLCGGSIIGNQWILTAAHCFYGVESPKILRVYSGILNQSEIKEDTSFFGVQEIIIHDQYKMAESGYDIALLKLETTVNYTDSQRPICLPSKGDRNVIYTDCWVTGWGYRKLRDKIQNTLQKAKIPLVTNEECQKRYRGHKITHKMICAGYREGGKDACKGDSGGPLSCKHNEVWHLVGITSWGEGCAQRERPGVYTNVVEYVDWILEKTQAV
Source text: (§2) The recombinant anticoagulant polypeptides in the present invention were expressed in E. coli and purified in our laboratory, of which the activities against coagulation factors were investigated by chromogenic assays. Human coagulation factors IIa (thrombin), Xa, XIa, XIIa, EGR-fXa were products of Haematologic Technologies Inc (United States). Recombinant fVIIa was products of Novo-Nordisk (Denmark). Recombinant soluble tissue factor (sTF) was purchased from Protgen (Beijing, China). The following chromogenic substrates were used for these coagulation factor assays: S2765 for human fXa, S2288 for human fVIIa and fIIa, 52366 for human fXIa and fXIIa, respectively.
(§3) The chromogenic assays were carried out in a total reaction volume of 100 μl in individual wells of a 96-well microtiter plate. 50 μl fIIa, fXa, fXIa, or fXIIa (final concentration: 1 nM) was incubated with 10 μl recombinant anticoagulant polypeptide at various concentrations (or PBS control group) Assays for the detection activity of fVIIa: 50 μl fVIIa+TF (1 μM) and EGR-fXa (final concentration 500 nM) was incubated for 15 mins at 25° C., respectively. After the addition of 40 μl of prewarmed chromogenic substrate to a final concentration of 400 μM, the changes of absorbance at 405 nm were monitored by using an E1x808 kinetic microtiter reader. The data were used to calculate the velocities of response.

human fIIa (thrombin) = biological target: T3, human fIIa (thrombin) (Homo sapiens, UniProt P00734); assay: Chromogenic assay, fIIa (thrombin); assay type: biochemical
T3 construct: Human coagulation factors IIa (thrombin), Xa, XIa, XIIa, EGR-fXa; purchased Haematologic Technologies Inc (United States)
Source text: as §2, §3

human fXa = biological target: T4, human fXa (Homo sapiens, UniProt P00742); assay: Chromogenic assay, fXa; assay type: biochemical
T4 construct: Human coagulation factors IIa (thrombin), Xa, XIa, XIIa, EGR-fXa; purchased Haematologic Technologies Inc (United States)
T4 sequence (P00742 41-179 limits assumed): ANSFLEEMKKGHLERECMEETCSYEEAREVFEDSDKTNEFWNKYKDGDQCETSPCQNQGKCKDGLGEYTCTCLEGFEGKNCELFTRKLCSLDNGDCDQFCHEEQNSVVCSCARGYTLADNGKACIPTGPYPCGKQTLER
T4 sequence (P00742 235-488 limits assumed): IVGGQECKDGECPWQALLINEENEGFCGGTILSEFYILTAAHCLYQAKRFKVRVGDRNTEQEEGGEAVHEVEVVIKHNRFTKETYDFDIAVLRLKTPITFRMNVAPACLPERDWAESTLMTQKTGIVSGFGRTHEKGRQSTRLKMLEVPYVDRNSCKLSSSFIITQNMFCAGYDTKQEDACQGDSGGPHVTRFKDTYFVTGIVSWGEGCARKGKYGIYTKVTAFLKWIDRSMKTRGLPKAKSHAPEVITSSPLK
Source text: as §2, §3

human fXIIa = biological target: T1, human fXIIa; assay: Chromogenic assay, fXIIa; assay type: biochemical
Source text: as §2, §3

fVIIa/TF = biological target: T5, fVIIa/TF (Homo sapiens, UniProt P08709); assay: Chromogenic assay, fVIIa/TF; assay type: biochemical
T5 construct: Recombinant fVIIa was products of Novo-Nordisk (Denmark); purchased Novo-Nordisk (Denmark) for fVIIa; Protgen (Beijing, China) for sTF; Haematologic Technologies Inc for EGR-fXa
T5 sequence (P08709 61-212 limits assumed): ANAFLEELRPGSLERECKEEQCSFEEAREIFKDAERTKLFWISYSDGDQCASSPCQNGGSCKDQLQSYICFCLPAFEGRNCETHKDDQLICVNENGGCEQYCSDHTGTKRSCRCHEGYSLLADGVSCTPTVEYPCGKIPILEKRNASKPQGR
T5 sequence (P08709 213-466 limits assumed): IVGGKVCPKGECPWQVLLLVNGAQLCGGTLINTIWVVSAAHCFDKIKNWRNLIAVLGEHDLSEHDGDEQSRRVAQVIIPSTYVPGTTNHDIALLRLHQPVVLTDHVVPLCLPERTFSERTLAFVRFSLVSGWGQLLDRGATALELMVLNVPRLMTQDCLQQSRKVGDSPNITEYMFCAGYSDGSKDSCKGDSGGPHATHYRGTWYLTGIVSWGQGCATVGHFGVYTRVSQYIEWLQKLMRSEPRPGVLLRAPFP
T5 sequence (P13726 33-251 partner limits assumed): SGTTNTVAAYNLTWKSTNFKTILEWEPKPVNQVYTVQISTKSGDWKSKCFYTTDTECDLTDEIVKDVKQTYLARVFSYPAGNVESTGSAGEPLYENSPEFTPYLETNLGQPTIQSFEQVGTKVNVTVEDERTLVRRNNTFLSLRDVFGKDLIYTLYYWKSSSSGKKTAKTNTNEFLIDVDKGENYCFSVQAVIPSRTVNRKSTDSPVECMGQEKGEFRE
Source text: as §2, §3

BALb/c mice = assay: Mouse tail bleeding time; assay type: in vivo; details: tail transected after 10 min
Method: After 10 min, the distal tip 1.5 mm of the mouse tail was transected and the blood oozed was soaked with filter paper very 30 seconds until the bleeding stops. The bleeding time was defined as the time elapsed from the tail transection to the stoppage of bleeding.

Molecule | prolongation of aPTT (in words) (normal human plasma [1]) | aPTT (normal human plasma [1]; 100 nM) [s] | multiples of prolonging aPTT (normal human plasma [1]; 100 nM) | aPTT (normal human plasma [1]; 500 nM) [s] | multiples of prolonging aPTT (normal human plasma [1]; 500 nM) | PT (normal human plasma [2]; 100 nM) [s] | PT (normal human plasma [2]; 500 nM) [s] | inhibition of the activity of fXIa (human fXIa) | effect on fIIa activity (in words) (human fIIa (thrombin); 100 nM) | effect on fXa activity (in words) (human fXa; 100 nM) | effect on fXIIa activity (in words) (human fXIIa; 100 nM) | effect on fVIIa/TF activity (in words) (fVIIa/TF; 100 nM) | prolongation of PT (in words) (normal human plasma [2]; 100 nM) | prolongation of PT (normal human plasma [2]; 500 nM) | inhibition of the activity of fVIIa/TF (fVIIa/TF; 200 nM) | other results
B1 | significantly prolong aPTT | 83.0 ± 1.2 | 2.07 | 219.3 ± 6.2 | 5.47 | 13.5 ± 0.4 | 12.3 ± 0.8 | more than 90% | without affecting | without affecting | without affecting | without affecting |  |  |  | prolongation of PT (in words) (normal human plasma [2]; 100 nM and 500 nM): couldn't prolong PT; inhibition of the activity of fXIa (in words) (human fXIa; 200 nM): almost completely inhibited; effect on fIIa activity (in words) (human fIIa (thrombin); 200 nM): without affecting; effect on fXa activity (in words) (human fXa; 200 nM): without affecting; effect on fXIIa activity (in words) (human fXIIa; 200 nM): without affecting; effect on fVIIa/TF activity (in words) (fVIIa/TF; 200 nM): without affecting; Bleeding time (BALb/c mice; 100 μg·kg^−1 tail vein): 8.38 ± 1.3 min; Bleeding time (BALb/c mice; 1 mg·kg^−1 tail vein): 8.29 ± 2.5 min; Bleeding time (BALb/c mice; 5 mg·kg^−1 tail vein): 8.32 ± 1.8 min
B2 | significantly prolong aPTT | 79.7 ± 2.9 | 1.99 | 238.6 ± 8.1 | 5.95 | 12.8 ± 0.7 | 17.6 ± 0.6 | more than 90% | without affecting | without affecting | without affecting | without affecting | almost couldn't prolong PT | less than 1.6 times | about 15% | 
B3 | significantly prolong aPTT | 80.8 ± 3.2 | 2.01 | 235.3 ± 5.4 | 5.87 | 13.0 ± 0.7 | 19.6 ± 0.9 | more than 90% | without affecting | without affecting | without affecting | without affecting | almost couldn't prolong PT | less than 1.6 times | about 15% | 

From patent publication US9243044B2, “Anticoagulant polypeptide and applications thereof” (GUANGDONG MEDICAL COLLEGE, priority 2011, dated 2016)
